Here are results for five proteins from patent US20250027068.

The data set concerns the target pooled human IgG (human IgG1,2,3 and 4).

B1: PRT-677 (protein)
chain: MQITSVWTKGVIPPTMDQFRYNNYDVFHAPYLPHQGWYDITKTFDGGDNLLCGAATAGNMLHWWFDQNKEYIENYLKKYPEKQKIIFNNQELFDLRKAINTKDSQTNSELFNYFRDKAFGNLSARQKGVMPDLVLDMFINGYYLNLFKTQSTDVNRPNDTRDKRGGFFDHVFGRGDQTKLLTARHDLYNGGLSDISQLIKQELQSGKALAISHTYGNVSSSHVINLWGADFDAEGNLEAIYVTDSDDRSSIGMKKYYVGINASGKVAISAKKIEGENVGAQVLGLFTLSSGKEIWKKLSLEHHHHHH
Protein B1 gave an Enzyme Activity Endpoint Assay: Fab′2 of 0 ng/µL, an Enzyme Activity Endpoint Assay: Fc of 0 ng/µL, an Enzyme Activity Endpoint Assay: IgG of 0 ng/µL and an Enzyme Activity Endpoint Assay: scIgG of 0 ng/µL.

B2: PRT-517 (protein)
chain: MITSVWTKGVTPPTDFIKGEDVFHAPYKAGQGWYDITKAFDGGDDLLCGAATAGNMLHWWFDQNKEEIEAYLKKHPEKQKIMFGDQELLDVRKVINTKDSQTNSALFNYFKDKAFPNLSARRLGVMPDLVLDMFINGYYLNVYKTQTTDVNRQEQTKDRRGGIFDAVFGRGDQTKLLTERHDLKNKTLKEISDLIKQELTEGKALGLSHTYANVRINHVINLWGADFDSNGNLEAIYVTDSDSNASIGMKKYFVGVNSAGKVAISAKEIKEDNIGAQVLGLFTLSTGQKIWNKTNLEHHHHHH
The protein B2 yielded an Enzyme Activity Endpoint Assay (purified): Fab′2 of 0 ng/µL, an Enzyme Activity Endpoint Assay (purified): Fc of 0 ng/µL and an Enzyme Activity Endpoint Assay (purified): scIgG of 22 ng/µL.

B3: PRT-482 (protein)
chain: MVTSVWTKGVTPPTDFIKGEDVFHAPYKAGQGWYDITKTFNGKDNLLCGAATAGNMLHWWFDQNKDQIEAYLKEHPEKQKIIFNNQELFDLKAAIDTKDDQTNSKLFEYFKEKAFPYLSTKHLGVFPDHVLDMFINGYRLSLTNHGPTPVKEGSKDKRGGIFDAVFTRGVQSKLLTSRHDFKEKTLKEISDLIKQELTEGKALALSHTYANVRINHVINLWGADFDSNGNLEAIYVTDSDTNASIGMKKYFVGVNSAGKVAISAKEIEDDNIGAQVLGLFTLSTGQDIWNQTNLEHHHHHH
In the case of B3, the Enzyme Activity Endpoint Assay: Fab′2 worked out at 261 ng/µL, the Enzyme Activity Endpoint Assay: Fc amounted to 322 ng/µL, the Enzyme Activity Endpoint Assay: IgG came to 146 ng/µL and the Enzyme Activity Endpoint Assay: scIgG worked out at 738 ng/µL.

B4: PRT-455 (protein)
chain: MITSVWTKGVTPPTDFIKGEDVFHAPYKAGQGWYDITKAFDGGDDLLCGAATAGNMLHWWFDQNKDQIEAYLKEHPEKQKINFNGEQMFDVKEAIDTKDDQTNSELFNYFKEKAFPYLSTKHLGVFPDHVLDMFINGYRLSLTNHGPTPVKRQEKDPRGGIFDAVFGRGDQTKLLTSRHDLKNKTLNEISQLIKQELTEGKALALSHTYANVRINHVINLWGADFDAEGNLEAIYVTDSDSNASIGMKKYFVGVNSAGKVAISAKEIEDDNIGAQVLGLFTLSTGQKIWNKTNLEHHHHHH
B4 had an Enzyme Activity Endpoint Assay: Fab′2 of 872 ng/µL, an Enzyme Activity Endpoint Assay: Fc of 416 ng/µL, an Enzyme Activity Endpoint Assay: IgG of 0 ng/µL and an Enzyme Activity Endpoint Assay: scIgG of 333 ng/µL.

B5: PRT-682 (protein)
chain: MQITSVWTKGVTPLTPEQFRNNNEDVIHAPYLANQGWYDITKTFNGKDNLLCGAATAGNMLHWWFDQNKTEIEAYLKKHPEKQKIIFNNQELFDLKKAIDTKDSQTNSQLFNYFRDKAFPNLSARQLGVMPDLVLDMFINGYYLNVFKTQSTDVNRPYQDKDKRGGIFDAVFTRGDQTTLLTSRHDLKNKGLNEISDIIKQELTEGKALALSHTYANVSISHVINLWGADFNAEGNLEAIYVTDSDANASIGMKKYFVGVNAHGKVAISAKKIEGENIGAQVLGLFTLSSGKDIWQKLSLEHHHHHH
B5 returned an Enzyme Activity Endpoint Assay: Fab′2 of 0 ng/µL, an Enzyme Activity Endpoint Assay: Fc of 0 ng/µL, an Enzyme Activity Endpoint Assay: IgG of 0 ng/µL and an Enzyme Activity Endpoint Assay: scIgG of 0 ng/µL.
